{
  "source": "paper PMC7511342",
  "about": "“Polyol and sugar osmolytes can shorten protein hydrogen bonds to modulate function” (Communications Biology, 2020)",
  "binders": {"B1": {"name": "C-terminal peptide from CRIPT (Ac-TKNYKQTSV-COOH) (peptide)", "peptide": "Ac-TKNYKQTSV-OH", "notes": "C-terminal nine residues of CRIPT; also called CRIPT peptide; source: synthetic peptide (APeptide Co. Ltd, Shanghai, China)"}},
  "biological_target": "T1, PDZ3 (the third PDZ domain of the neuronal signaling protein PSD-95/SAP90, residue 303-395) (UniProt P31016 303-395)",
  "T1 construct": "third PDZ domain of PSD-95/SAP90, residues 303-395; 15N-labelled for the NMR titration; also called PDZ3^303-395",
  "T1 sequence (P31016 303-395)": "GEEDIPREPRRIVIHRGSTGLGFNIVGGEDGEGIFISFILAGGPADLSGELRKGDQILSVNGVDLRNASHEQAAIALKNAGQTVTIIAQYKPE",
  "assay": "NMR titration; 2D 1H-15N HSQC of 15N-labelled PDZ3 303-395 (20 uM) titrated with CRIPT peptide 0-100 uM; 308 K; 20 mM sodium phosphate, 50 mM NaCl, pH 7.0; no osmolyte; single-site fit of 12 backbone amides, averaged",
  "conditions": "both partners purified",
  "data": [
    {"binder": "B1", "values": [
      {"measurement": "Kd", "result": "~13", "unit": "µM"}
    ]}
  ]
}
